Measured values published in the supplement of paper PMC10126150.
± gives the standard deviation of the averaged measurements.

Test system: ATP
Assay: switch fluorescence ratio, 500 uM ATP over buffer (Cy3 cluster intensity, sum of 5 cycles each) (fold (ratio)); higher = stronger signal-on switching upon ATP binding; sequences stand for … in TCGTCGGCAGCGTCAGATGTGTATAAGAGACAGTTTTTTTTTTTTTTTTTTTTTTTTT…TC
Details: aptamer strand: ATP DNA aptamer (quencher-CACCTGGGGGAGTATTGCGGAGGAAGG + anchor), 100 nM annealed; ATP concentration: 500 uM
Summary of the method: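 Per cluster, summed Cy3 intensity from the target cycles was divided by that from the buffer cycles to give the fluorescence ratio, then averaged per switch-domain sequence. Clusters outside 100-1000 RFU were excluded. The Cy3-labelled switching-strand clusters, on a modified Illumina MiSeq flow-cell, were annealed to 100 nM quencher-labelled ATP aptamer and imaged in selection buffer, then after 15 min with 500 uM ATP at 22 °C, for five cycles with NaOH stripping and re-annealing between them.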
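Also: ATP exposure 15 min at 22 °C before imaging.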

Row | Sequence | switch fluorescence ratio
1 | TGGGTTTGGA | 1.03 ± 0.049
2 | ATGTACAGGA | 1.05 ± 0.056
3 | TTCAGATAGA | 0.9875 ± 0.0037
4 | GCGAATTAAT | 0.979 ± 0.033
5 | TGACACATGA | 1.02 ± 0.013
6 | ATTTGGGGTG | 1.016 ± 0.0069
7 | GAAGGGGTCG | 1.05 ± 0.046
8 | TAAGTTTGGG | 0.968 ± 0.04
9 | CATAGTTTGC | 0.9979 ± 0.0053
10 | TCAAGGGGAG | 1.06 ± 0.067
11 | TAGGTCGCCG | 1 ± 0.044
12 | CAAGATTGTT | 1.02 ± 0.017
13 | GGGATACAGC | 1.03 ± 0.059
14 | GCACGGGGGA | 0.9884 ± 0.0077
15 | CGCAGGGGGT | 1.01 ± 0.039
16 | GCAAGAGGGG | 1.06 ± 0.039
17 | CGATTAAAGT | 0.997 ± 0.031
18 | TTGGGAACTA | 1.01 ± 0.02
19 | GGGGATATGG | 1.01 ± 0.039
20 | GAATTAGACG | 0.977 ± 0.01
21 | AGCATGGGGG | 1.01 ± 0.023
22 | TGAATGCTTT | 1.23 ± 0.3
23 | ACGGGAGAGG | 1.02 ± 0.035

Row | Sequence | switch fluorescence ratio
24 | GGGCGTGTTG | 1.027 ± 0.01
25 | GGAATTGGGG | 1.01 ± 0.027
26 | ATGTACGGGG | 1.04 ± 0.028
27 | CACGTGGGAG | 1.04 ± 0.023
28 | GCATCACGTT | 1 ± 0.029
29 | TTCCGGGTTG | 1.34 ± 0.35
30 | CTAGGGTGTG | 0.988 ± 0.034
31 | TTTTGGATTG | 0.986 ± 0.026
32 | CCATGGTTAC | 2.67 ± 2.3
33 | TTGGTATTGA | 0.99 ± 0.098
34 | CGTTTGGACA | 0.9893 ± 0.0051
35 | TGTTTGGGTT | 0.978 ± 0.012
36 | GATACTTGGG | 0.989 ± 0.035
37 | TAGTTGCTTG | 1.03 ± 0.054
38 | TGCCTTGGGG | 1.07 ± 0.16
39 | AATTTCGGAC | 1.07 ± 0.071
40 | GGTGTTCGCA | 1.02 ± 0.014
41 | AGCATAAGGC | 1.02 ± 0.019
42 | GGTAATTTTG | 0.996 ± 0.061
43 | TGCTTCTATA | 1.01 ± 0.051
44 | GATGTACGCA | 0.973 ± 0.075
45 | GCGAACCCAA | 1.18 ± 0.048
46 | ATTCCATTTG | 1.03 ± 0.05

Row | Sequence | switch fluorescence ratio
47 | TTCAGATTAC | 1.04 ± 0.024
48 | TTTATTTAGG | 1.04 ± 0.011
49 | AGAACTGTAA | 1.08 ± 0.034
50 | ACCGCAGGGG | 1.42 ± 0.6
51 | TCGGGTAGTT | 1.04 ± 0.055
52 | CAGTTGCGCA | 0.996 ± 0.034
53 | CGGAGTAAGA | 2.53 ± 0.15
54 | TATTTCTGTA | 1.03 ± 0.019
55 | TCGTGGCGAG | 1.01 ± 0.028
56 | TAGTAGTGGG | 1.01 ± 0.022
57 | GAGGAGCTCG | 0.9522 ± 0.0045
58 | CCAGTTTGGA | 0.998 ± 0.017
59 | AACGTTGGGC | 1.03 ± 0.059
60 | CGATATAAGA | 0.998 ± 0.054
61 | TCCGTCAATG | 1.63 ± 0.07
62 | GTTGCTAGTA | 1 ± 0.011
63 | GGGAGTATCT | 0.9998 ± 0.0028
64 | CATGATGAGA | 0.969 ± 0.035
65 | GGTCAGTGGT | 1 ± 0.022
66 | TATCGAAGTT | 1.013 ± 0.0018
67 | CATGTTGGAT | 0.964 ± 0.029
68 | CTGGTCGGGG | 1.017 ± 0.0096
69 | GAATTACGGG | 1.02 ± 0.023

Row | Sequence | switch fluorescence ratio
70 | GACCCCGATT | 1.05 ± 0.022
71 | TTTAGGGACG | 0.955 ± 0.14
72 | GTTGGCATTA | 1.03 ± 0.023
73 | ACTATGAACC | 1.051 ± 0.0016
74 | CGGGTTTACG | 1 ± 0.025
75 | AGAGGTGCAT | 1.02 ± 0.017
76 | ATAAGAAGCG | 1.02 ± 0.04
77 | TTTCCTAACT | 1.04 ± 0.039
78 | ATGAGGTCGT | 1.008 ± 0.007
79 | GGACTTTTTG | 0.953 ± 0.045
80 | GACTGGGCGG | 1 ± 0.021
81 | TGGGCAGGAT | 1.01 ± 0.041
82 | GCTAACACGG | 1.048 ± 0.0053
83 | GAGTGGAGGT | 0.985 ± 0.01
84 | TTGGGGCAGG | 1.1 ± 0.07
85 | ACGGGATTTG | 0.9822 ± 0.0073
86 | TACGTATGGG | 0.997 ± 0.021
87 | CTCTTGGGGA | 1.02 ± 0.0057
88 | AAGTTGGCAT | 0.977 ± 0.04
89 | GCAGTAGCTG | 0.998 ± 0.011
90 | TAATTCTTTT | 0.986 ± 0.029
91 | TTGAGGCACG | 1.04 ± 0.042
92 | GTTTTGTAAG | 1 ± 0.023

Row | Sequence | switch fluorescence ratio
93 | GAAGAGGGTT | 0.972 ± 0.033
94 | TGGGGTGGGA | 0.991 ± 0.029
95 | TATTGGTAAA | 0.997 ± 0.036
96 | CTAATTTCGT | 0.992 ± 0.014
97 | TTATCTTTTT | 1 ± 0.032
98 | ATTGAATCAT | 1.005 ± 0.0033
99 | TGTGAGGGA | 1 ± 0.029
100 | AGAATATTGG | 0.982 ± 0.046
101 | TGGTTACCCC | 1.001 ± 0.01
102 | GGGAGAACG | 0.98 ± 0.017
103 | TTTAAAATTG | 0.989 ± 0.042
104 | GACGGACTTT | 1.143 ± 0.006
105 | TTATCAATAA | 1.42 ± 0.57
106 | CTAATACTAG | 0.982 ± 0.047
107 | GCAGGGTGGC | 1 ± 0.062
108 | TCAGGACGGG | 0.992 ± 0.02
109 | ACGCCCGGGT | 1.08 ± 0.051
110 | ACTTGCACGT | 1.175 ± 0.0094
111 | CCTGTTAGCT | 1.15 ± 0.076
112 | CCAAAAGTGG | 1.04 ± 0.044
113 | GCCGGGGATG | 1.007 ± 0.0024
114 | TTACGGGGCC | 0.977 ± 0.049
115 | GTGTATGCAA | 1.03 ± 0.029

Row | Sequence | switch fluorescence ratio
116 | CACCTCTTAC | 1.271 ± 0.0029
117 | AGGGGTATAT | 1.02 ± 0.028
118 | CGAGGTGTGT | 1.009 ± 0.0022
119 | CGCTGTGGAG | 1.01 ± 0.012
120 | CGTCTAGTCG | 1 ± 0.025
121 | AAAGGGGGGG | 1.01 ± 0.037
122 | ACCTGATAGT | 1.044 ± 0.0066
123 | CGGCGCATTA | 2.86 ± 0.55
124 | TCATATTTAA | 1.015 ± 0.0043
125 | TTTCTTTAAA | 1.01 ± 0.019
126 | TGGGGGTTTG | 0.993 ± 0.021
127 | GAGTTTAAGA | 0.979 ± 0.024
128 | GCAAAAAAAC | 1.02 ± 0.067
129 | ATTGTCTATA | 0.981 ± 0.011
130 | TTTTGAGTTT | 0.984 ± 0.028
131 | ACAGGAGGTG | 1.13 ± 0.035
132 | AAAAGGAGGC | 1.01 ± 0.011
133 | AATTGACTGT | 1.07 ± 0.025
134 | GCAGATTTTG | 0.98 ± 0.038
135 | GCAGTTAAAC | 1.04 ± 0.045
136 | AGGGCATAAG | 0.982 ± 0.062
137 | TTGTTTGAGG | 0.9815 ± 0.004
138 | GTGGTACGTG | 1 ± 0.064

Row | Sequence | switch fluorescence ratio
139 | GGGGTTTTGC | 0.985 ± 0.017
140 | GTTTACTGAA | 1.01 ± 0.018
141 | ACACAGAGAG | 1.02 ± 0.033
142 | AAAACTGTCA | 1.009 ± 0.0086
143 | TTGAAGCGTT | 0.996 ± 0.018
144 | TGCTTAGTTC | 0.959 ± 0.046
145 | TTCTATATAT | 1.01 ± 0.035
146 | ATTCGCTTTT | 1 ± 0.042
147 | AGGGGGATGG | 0.996 ± 0.013
148 | TTCGGACTTC | 0.976 ± 0.064
149 | AGCGTAGGGG | 0.94 ± 0.033
150 | CATGGGGGTG | 1 ± 0.021
151 | GGGCCTAGGA | 1.028 ± 0.0069
152 | TCGAAAGAGA | 1.02 ± 0.025
153 | AACTCTGTCT | 1 ± 0.032
154 | GTAGGGGTTT | 0.998 ± 0.034
155 | TGGGGAAACT | 1.15 ± 0.23
156 | GATTATAAGT | 0.99 ± 0.017
157 | TATTCGCTTT | 1.33 ± 0.48
